Measured values taken from patent US20200057058A1 (MIT, published 2020).

Columns and labels:
streptavidin [1] = target: T1, streptavidin (UniProt P22629 37-163, limits assumed); assay: sandwich assay: SA in 50% urine, biotin-HRP/TMB detection
T1 construct: It was used without a stated label in the sandwich assays; also called SA

streptavidin [2] = target: T1, streptavidin; assay: fluorescent binding curve, labeled SA in 50% urine, 4 h; quadratic fit
streptavidin [3] = target: T1, streptavidin; assay: sandwich assay: SA in 50% blood serum, biotin-HRP/TMB detection
[4] = target: monomeric streptavidin variant mSA2; assay: fluorescent binding curves, labeled mSA2 in 50% urine or 50% blood serum, 4 h
streptavidin [5] = target: T1, streptavidin; assay: fluorescent binding curve, labeled SA in PBS, 4 h exposure; quadratic fit
streptavidin [6] = target: T1, streptavidin; assay: fluorescent binding curve, labeled SA in 50% blood serum, 4 h; quadratic fit
[7] = target: monomeric streptavidin variant mSA2; assay: fluorescent binding assay, labeled mSA2 in PBS on monolayer; quadratic curve fit
Description: The binding function of rcSso7d.SA oligomer-PNIPAM thin films was measured using fluorescently-labeled monomeric streptavidin (mSA2) and fluorescently-labeled streptavidin (SA). Details for the expression, purification, and fluorescent labeling of mSA2 are provided below. Samples were prepared by serial dilution of SA or mSA2 in PBS (pH 7.4), human urine (diluted to 50% v/v in PBS, pH 7.4), or blood serum (obtained as the supernatant by centrifuging whole blood at 1500×g for 10 minutes, then diluted to 50% v/v in PBS, pH 7.4). 0.5 μL drops of solutions containing serially diluted fluorescent mSA2 and fluorescent SA samples in PBS (pH 7.4) were gently applied to the surface of each bioconjugate thin film. […] After 1 hour, films were thoroughly rinsed with water for 10 seconds (a time determined to be sufficient to remove unbound molecules from the film, see FIG. 33, dried under filtered airflow, and immediately analyzed for fluorescent signal. Fluorescence microscopy images were acquired at 4× magnification using a Cy5 filter set and exposure time of 5000 ms on an Olympus IX-81 inverted fluorescence microscope with an AxioCam HRC CCD camera. Fluorescent intensity was calculated using ImageJ software⁶⁷ by determining the average fluorescent signal in a rectangular area of the fluorescent image free of defects and occupying no less than half of the full sample application area. […]

[8] = target: monomeric streptavidin variant mSA2; assay: fluorescent binding assay, labeled mSA2 in PBS on the monolayer, 4 h exposure
[9] = target: monomeric streptavidin variant mSA2; assay: apparent Kd (Kd,app); fluorescent binding curve, labeled mSA2 in PBS, 4 h exposure; quadratic fit
Description: The binding function of rcSso7d.SA oligomer-PNIPAM thin films was measured using fluorescently-labeled monomeric streptavidin (mSA2) and fluorescently-labeled streptavidin (SA). Details for the expression, purification, and fluorescent labeling of mSA2 are provided below. Samples were prepared by serial dilution of SA or mSA2 in PBS (pH 7.4), human urine (diluted to 50% v/v in PBS, pH 7.4), or blood serum (obtained as the supernatant by centrifuging whole blood at 1500×g for 10 minutes, then diluted to 50% v/v in PBS, pH 7.4). 0.5 μL drops of solutions containing serially diluted fluorescent mSA2 and fluorescent SA samples in PBS (pH 7.4) were gently applied to the surface of each bioconjugate thin film. Films were incubated in a sealed chamber saturated with water vapor at room temperature to prevent to prevent drying of the applied fluorescent samples. […] Fluorescence microscopy images were acquired at 4× magnification using a Cy5 filter set and exposure time of 5000 ms on an Olympus IX-81 inverted fluorescence microscope with an AxioCam HRC CCD camera. Fluorescent intensity was calculated using ImageJ software⁶⁷ by determining the average fluorescent signal in a rectangular area of the fluorescent image free of defects and occupying no less than half of the full sample application area.
To evaluate how the apparent size-based diffusion properties translated to biosensing capabilities, binding curves were measured using SA and mSA2 solutions in buffer. Binding curves were fit with a quadratic model that is a function of three parameters: the average MFI per binding event a, the total concentration of binding sites [P]T, and the apparent dissociation constant K_{d,app} describing the binding equilibrium between analyte and binding sites within the thin film.

[10] = target: monomeric streptavidin variant mSA2; assay: apparent Kd (Kd,app); fluorescent binding curve, labeled mSA2 in 50% blood serum, 4 h; quadratic fit

T1 sequence (P22629 37-163 limits assumed): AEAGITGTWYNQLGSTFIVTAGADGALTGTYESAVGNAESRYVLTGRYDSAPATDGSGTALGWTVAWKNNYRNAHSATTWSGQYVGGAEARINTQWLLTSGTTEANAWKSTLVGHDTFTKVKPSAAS

B1: rcSso7d.SA monolayer (designed binder)
chain: MGSIHHHHHHSSGLVPRGSHMCATVKFTYQGEEKQVDISKIKIVARDGQYIDFKYDEGGGAYGYGWVSEKDAPKELLQMLEKQ
modifications: EDC/NHS-activated protein coupled to an amine-functionalized silicon wafer
notes: also called monomeric rcSso7d.SA; surface-immobilized rcSso7d.SA
LOD (streptavidin [1]): 32 nM | [P]T (total concentration of binding sites) (streptavidin [2]): 0.29 nM | LOD (streptavidin [3]): 40 nM | sensitivity in the fluids relative to buffer [4]: ≤ 10 fold | [P]T (total concentration of binding sites) (streptavidin [5]): 0.36 nM | [P]T (total concentration of binding sites) (streptavidin [6]): 0.28 nM | Kd [7]: 2 µM | EC50 (read off the curve) [8]: ~3 µM | Kd [9]: 3 µM | Kd [10]: 62 µM
